Source: publication PMC10039049

Biological target: extracellular leucine-rich repeat (LRR) domain of OsER1 (OsER1^LRR) (rice (Oryza sativa)) (UniProt Q69SP5)
Assay: ITC; about 0.3 mM OsEPFL peptide injected (24 x 1.5 uL) into 0.03 mM OsER1^LRR in the cell; ITC200, 25 °C, 10 mM Bis-Tris pH 6.0, 100 mM NaCl

Sequence of UniProt Q69SP5 (Q69SP5 25-577): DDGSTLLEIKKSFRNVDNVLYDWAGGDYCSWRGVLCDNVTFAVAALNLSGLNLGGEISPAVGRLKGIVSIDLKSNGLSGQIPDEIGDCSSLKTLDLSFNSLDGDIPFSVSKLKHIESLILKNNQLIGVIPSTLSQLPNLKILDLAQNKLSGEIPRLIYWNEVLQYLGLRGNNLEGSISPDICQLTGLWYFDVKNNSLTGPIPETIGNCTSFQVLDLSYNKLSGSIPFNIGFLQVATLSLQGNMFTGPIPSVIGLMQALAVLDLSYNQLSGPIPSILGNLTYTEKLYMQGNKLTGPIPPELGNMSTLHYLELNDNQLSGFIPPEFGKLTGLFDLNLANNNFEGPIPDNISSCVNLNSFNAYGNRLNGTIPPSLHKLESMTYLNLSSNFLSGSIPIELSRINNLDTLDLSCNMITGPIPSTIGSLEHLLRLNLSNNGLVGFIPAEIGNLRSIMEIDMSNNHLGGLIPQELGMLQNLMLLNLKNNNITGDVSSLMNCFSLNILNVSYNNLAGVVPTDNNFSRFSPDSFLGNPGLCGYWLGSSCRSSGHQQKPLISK

Row | Kd | Substance
1 | 1.35 µM | predicted mature small peptide OsEPFL6
2 | 1.02 µM | predicted mature small peptide OsEPFL7
3 | 18.7 µM | predicted mature small peptide OsEPFL8
4 | 56.8 µM | predicted mature small peptide OsEPFL9
